Experimental findings from patent publication US20130281314A1 (Genentech, published 2013) are described below.

The assay addresses T1, Wildtype ubiquitin (human, UniProt P0CG48 1-76).
T1 construct: also called wt; not shown: N-terminal 6xHis tag of the pET derivative vector
The experiment in a line: biolayer interferometry, USP14catC114A on sensors, steady state fit.

B1: USP14catC114A (enzyme, UniProt P54578 91-494, looked up)
chain: DMTEEQLASAMELPCGLTNLGNTAYMNATVQCIRSVPELKDALKRYAGALRASGEMASAQYITAALRDLFDSMDKTSSSIPPIILLQFLHMAFPQFAEKGEQGQYLQQDANECWIQMMRVLQQKLEAIEDDSVKETDSSSASAATPSKKKSLIDQFFGVEFETTMKCTESEEEEVTKGKENQLQLSCFINQEVKYLFTGLKLRLQEEITKQSPTLQRNALYIKSSKISRLPAYLTIQMVRFFYKEKESVNAKVLKDVKFPLMLDMYELCTPELQEKMVSFRSKFKDLEDKKVNQQPNTSDKKSSPQKEVKYEPFSFADDIGSNNCGYYDLQAVLTHQGRSSSSGHYVSWVKRKQDEWIKFDDDKVSIVTPEDILRLSGGGDWHIAYVLLYGPRRVEIMEEESEQ
modifications: monobiotinylated at the C-terminal Avi tag
notes: range 91-494; N-terminal His tag removed with TEV protease; also called catalytic domain of USP14 (residues D91-Q494) with a C114A mutation; not shown: C-terminal Avi tag
For B1, the Kd was 100 µM.
